According to patent publication US20250003951A1, “METHOD AND COMPOSITION” (Oxford University Innovation Limited, priority 2021, published 2025):

Legend:
Conditions in all cases: chains Valpha:Vbeta
[1] = target: ACADS, germline variant rs1799958 peptide on (human); experiment: IFNγ-catch sort of peptide-cultured, peptide-restimulated patient PBMCs, then 10x V(D)J sequencing; TCR not re-expressed; not present in the IFNγ- control (FIG. 12); clone with two TRA chains, specific pairing not told; T cell clone or line
[2] = target: ACADS, germline variant rs1799958 peptide on (human); experiment: as above; remark: listed apart in the source
[3] = target: ACADS, germline variant rs1799958 peptide on (human); experiment: IFNγ-catch sort of peptide-cultured, peptide-restimulated patient PBMCs, then 10x V(D)J sequencing; TCR not re-expressed; not present in the IFNγ- control (FIG. 12); T cell clone or line
[4] = target: ACADS, germline variant rs1799958 peptide on (human); experiment: as above; remark: listed apart in the source
[5] = target: ACADS, germline variant rs1799958 peptide on (human); experiment: IFNγ-catch sort of peptide-cultured, peptide-restimulated patient PBMCs, then 10x V(D)J sequencing; TCR not re-expressed; not present in the IFNγ- control (FIG. 12); clone with two TRA chains, specific pairing not told; T cell clone or line; remark: listed apart in the source
[6] = target: HENMT1, germline variant rs36100901 peptide on (human); experiment: IFNγ-catch sort of peptide-cultured, peptide-restimulated patient PBMCs, then 10x V(D)J sequencing; TCR not re-expressed; not present in the IFNγ- control (FIG. 10); clone with two TRB chains, specific pairing not told; T cell clone or line
[7] = target: HENMT1, germline variant rs36100901 peptide on (human); experiment: as above; remark: listed apart in the source
[8] = target: HENMT1, germline variant rs36100901 peptide on (human); experiment: IFNγ-catch sort of peptide-cultured, peptide-restimulated patient PBMCs, then 10x V(D)J sequencing; TCR not re-expressed; not present in the IFNγ- control (FIG. 10); T cell clone or line
[9] = target: HENMT1, germline variant rs36100901 peptide on (human); experiment: as above; remark: listed apart in the source
[10] = target: HENMT1, germline variant rs36100901 peptide on (human); experiment: IFNγ-catch sort of peptide-cultured, peptide-restimulated patient PBMCs, then 10x V(D)J sequencing; TCR not re-expressed; not present in the IFNγ- control (FIG. 10); clone with two TRB chains, specific pairing not told; T cell clone or line; remark: listed apart in the source
[11] = target: HENMT1, germline variant rs36100901 peptide on (human); experiment: as above; remark: listed apart in the source
[12] = target: HENMT1, germline variant rs36100901 peptide on (human); experiment: as above; remark: listed apart in the source
[13] = target: COA6, reference allele at rs10910420 peptide on (human); experiment: IFNγ-catch sort of peptide-cultured, peptide-restimulated patient PBMCs, then 10x V(D)J sequencing; TCR not re-expressed; clone 1 was present in the IFNγ- control (FIG. 13); clone with two TRA chains, specific pairing not told; T cell clone or line
[14] = target: COA6, reference allele at rs10910420 peptide on (human); experiment: as above; remark: listed apart in the source
[15] = target: COA6, reference allele at rs10910420 peptide on (human); experiment: IFNγ-catch sort of peptide-cultured, peptide-restimulated patient PBMCs, then 10x V(D)J sequencing; TCR not re-expressed; clone 2 was absent from the IFNγ- control (FIG. 13); T cell clone or line
[16] = target: COA6, reference allele at rs10910420 peptide on (human); experiment: as above; remark: listed apart in the source
[17] = target: COA6, reference allele at rs10910420 peptide on (human); experiment: IFNγ-catch sort of peptide-cultured, peptide-restimulated patient PBMCs, then 10x V(D)J sequencing; TCR not re-expressed; clone 1 was present in the IFNγ- control (FIG. 13); clone with two TRA chains, specific pairing not told; T cell clone or line; remark: listed apart in the source

B1: OX289 Peptides 75/205 clone 1, first TRA with TRB (protein)
chain 1: GNSVTQMEGPVTLSEEAFLTINCTYTATGYPSLFWYVQYPGEGLQLLLKATKADDKGSNKGFEATYRKETTSFHLEKGSVQVSDSAVYFCALRHKAAGNKLTFGGGTRVLVKP
chain 2: GAVVSQHPSWVICKSGTSVKIECRSLDFQATTMFWYRQFPKQSLMLMATSNEGSKATYEQGVEKDKFLINHASLTLSTLTVTSAHPEDSSFYICSASGPEKLFFGSGTQLSVL
**Q.** What does the source list for B1?
**A.** clone size (percent repertoire) [1]: 42.4%; clone size (percent repertoire) [2]: 42.4%

B2: OX289 Peptides 75/205 clone 3 (protein)
chain 1: GNSVTQMEGPVTLSEEAFLTINCTYTATGYPSLFWYVQYPGEGLQLLLKATKADDKGSNKGFEATYRKETTSFHLEKGSVQVSDSAVYFCALRGRNQGGKLIFGQGTELSVKP
chain 2: GAVVSQHPSRVICKSGTSVKIECRSLDFQATTMFWYRQFPKQSLMLMATSNEGSKATYEQGVEKDKFLINHASLTLSTLTVTSAHPEDSSFYICSARLSSGGGYEQFFGPGTRLTVL
**Q.** Which clone size (percent repertoire) [3] does the source give for B2 here?
**A.** Its clone size (percent repertoire) is 13.9%.

**Q.** What about the clone size (percent repertoire) [4] of the same binder?
**A.** The clone size (percent repertoire) was 13.9%.

B3: OX289 Peptides 75/205 clone 1, second TRA with TRB (protein)
chain 1: QQQVKQSPQSLIVQKGGISIINCAYENTAFDYFPWYQQFPGKGPALLIAIRPDVSEKKEGRFTISFNKSAKQFSLHIMDSQPGDSATYFCAALFDGGSQGNLIFGKGTKLSVKP
chain 2: GAVVSQHPSWVICKSGTSVKIECRSLDFQATTMFWYRQFPKQSLMLMATSNEGSKATYEQGVEKDKFLINHASLTLSTLTVTSAHPEDSSFYICSASGPEKLFFGSGTQLSVL
**Q.** What does the source list for B3?
**A.** clone size (percent repertoire) [5]: 42.4%; clone size (percent repertoire) [2]: 42.4%

B4: OX289 Peptides 73/74 clone 2, TRA with second TRB (protein)
chain 1: ELKVEQNPLFLSMQEGKNYTIYCNYSTTSDRLYWYRQDPGKSLESLFVLLSNGAVKQEGRLMASLDTKARLSTLHITAAVHDLSATYFCAVEETSGSRLTFGEGTQLTVNP
chain 2: EAQVTQNPRYLITVTGKKLTVTCSQNMNHEYMSWYRQDPGLGLRQIYYSMNVEVTDKGDVPEGYKVSRKEKRNFPLILESPSPNQTSLYFCASSERQGITEAFFGQGTRLTVV
**Q.** With B4 as the binder, how does the clone size (percent repertoire) [6] read?
**A.** Its clone size (percent repertoire) is 25.6%.

**Q.** And the clone size (percent repertoire) [7]?
**A.** Its clone size (percent repertoire) is 25.6%.

B5: OX289 Peptides 73/74 clone 1 (protein)
chain 1: GEDVEQSLFLSVREGDSSVINCTYTDSSSTYLYWYKQEPGAGLQLLTYIFSNMDMKQDQRLTVLLNKKDKHLSLRIADTQTGDSAIYFCAESPSDGQKLLFARGTMLKVDL
chain 2: EAQVTQNPRYLITVTGKKLTVTCSQNMNHEYMSWYRQDPGLGLRQIYYSMNVEVTDKGDVPEGYKVSRKEKRNFPLILESPSPNQTSLYFCASSLRQGISPEQFFGPGTRLTVL
**Q.** B5 was tested. Which clone size (percent repertoire) [8] did it give?
**A.** The clone size (percent repertoire) was 32.3%.

**Q.** What about the clone size (percent repertoire) [9] of the same binder?
**A.** The clone size (percent repertoire) was 32.3%.

B6: OX289 Peptides 73/74 clone 2, TRA with first TRB (protein)
chain 1: ELKVEQNPLFLSMQEGKNYTIYCNYSTTSDRLYWYRQDPGKSLESLFVLLSNGAVKQEGRLMASLDTKARLSTLHITAAVHDLSATYFCAVEETSGSRLTFGEGTQLTVNP
chain 2: EAQVTQNPRYLITVTGKKLTVTCSQNMNHEYMSWYRQDPGLGLRQIYYSMNVEVTDKGDVPEGYKVSRKEKRNFPLILESPSPNQTSLYFCASSLRQGISPEQFFGPGTRLTVL
**Q.** For B6, which clone size (percent repertoire) [6] is on record?
**A.** Its clone size (percent repertoire) is 25.6%.

**Q.** What about the clone size (percent repertoire) [10] of the same binder?
**A.** Its clone size (percent repertoire) is 25.6%.

B7: OX289 Peptides 73/74 clone 3, TRA with first TRB (protein)
chain 1: AQSVTQLDSQVPVFEEAPVELRCNYSSSVSVYLFWYVQYPNQGLQLLLKYLSGSTLVKGINGFEAEFNKSQTSFHLRKPSVHISDTAEYFCAVSGTGANSKLTFGKGITLSVRP
chain 2: GAGVSQSPSNKVTEKGKDVELRCDPISGHTALYWYRQSLGQGLEFLIYFQGNSAPDKSGLPSDRFSAERTGGSVSTLTIQRTQQEDSAVYLCASSDPISGRGDEQFFGPGTRLTVL
**Q.** With B7 as the binder, how does the clone size (percent repertoire) [6] read?
**A.** The clone size (percent repertoire) was 8.67%.

**Q.** And the clone size (percent repertoire) [11]?
**A.** The clone size (percent repertoire) was 8.67%.

B8: OX289 Peptides 73/74 clone 3, TRA with second TRB (protein)
chain 1: AQSVTQLDSQVPVFEEAPVELRCNYSSSVSVYLFWYVQYPNQGLQLLLKYLSGSTLVKGINGFEAEFNKSQTSFHLRKPSVHISDTAEYFCAVSGTGANSKLTFGKGITLSVRP
chain 2: GAGVSQSPSNKVTEKGKDVELRCDPISGHTALYWYRQSLGQGLEFLIYFQGNSAPDKSGLPSDRFSAERTGGSVSTLTIQRTQQEDSAVYLCASSFGGGAWNEQFFGPGTRLTVL
**Q.** With B8 as the binder, how does the clone size (percent repertoire) [6] read?
**A.** The clone size (percent repertoire) was 8.67%.

**Q.** And the clone size (percent repertoire) [12]?
**A.** The clone size (percent repertoire) was 8.67%.

B9: OX802 Peptides 321/322 clone 1, first TRA with TRB (protein)
chain 1: GQSLEQPSEVTAVEGAIVQINCTYQTSGFYGLSWYQQHDGGAPTFLSYNALDGLEETGRFSSFLSRSDSYGYLLLQELQMKDSASYFCAVLKKGYALNFGKGTSLLVTP
chain 2: EAGVVQSPRYKIIEKKQPVAFWCNPISGHNTLYWYLQNLGQGPELLIRYENEEAVDDSQLPKDRFSAERLKGVDSTLKIQPAELGDSAVYLCASSLEAGDSYEQYFGPGTRLTVT
**Q.** Which results are given for B9?
**A.** clone size (percent repertoire) [13]: 47.4%; clone size (percent repertoire) [14]: 47.4%

B10: OX802 Peptides 321/322 clone 2 (protein)
chain 1: KDQVFQPSTVASSEGAVVEIFCNHSVSNAYNFFWYLHFPGCAPRLLVKGSKPSQQGRYNMTYERFSSSLLILQVREADAAVYYCAVTGGYNKLIFGAGTRLAVHP
chain 2: EAGVVQSPRYKIIEKKQPVAFWCNPISGHNTLYWYLQNLGQGPELLIRYENEEAVDDSQLPKDRFSAERLKGVDSTLKIQPAELGDSAVYLCASSLEAGDSYEQYFGPGTRLTVT
**Q.** With B10 as the binder, how does the clone size (percent repertoire) [15] read?
**A.** The clone size (percent repertoire) was 20%.

**Q.** And the clone size (percent repertoire) [16]?
**A.** Its clone size (percent repertoire) is 20%.

B11: OX802 Peptides 321/322 clone 1, second TRA with TRB (protein)
chain 1: KDQVFQPSTVASSEGAVVEIFCNHSVSNAYNFFWYLHFPGCAPRLLVKGSKPSQQGRYNMTYERFSSSLLILQVREADAAVYYCAVAGGYNKLIFGAGTRLAVHP
chain 2: EAGVVQSPRYKIIEKKQPVAFWCNPISGHNTLYWYLQNLGQGPELLIRYENEEAVDDSQLPKDRFSAERLKGVDSTLKIQPAELGDSAVYLCASSLEAGDSYEQYFGPGTRLTVT
**Q.** B11 was tested. Which clone size (percent repertoire) [17] did it give?
**A.** The clone size (percent repertoire) was 47.4%.

**Q.** What about the clone size (percent repertoire) [13] of the same binder?
**A.** Its clone size (percent repertoire) is 47.4%.
